Measured values as given in paper PMC11491553, “Structural insights into the mechanotransducing mechanism of FtsEX in cell division” (MedComm, 2024).

B1: FtsX (natural protein, E. coli K12)
chain: RFRKSVGGSGDGGRNAPKRAKSSPKPVNRKTNVFNEQVRYAFHGALQDLKSKPFATFLTVMVIAISLTLPSVCYMVYKNVNQAATQYYPSPQITVYLQKTLDDDAAAGVVAQLQAEQGVEKVNYLSREDALGEFRNWSGFGGALDMLEENPLPAVAVVIPKLDFQGTESLNTLRDRITQINGIDEVRMDDSWFARLAALTGLVGRVSAMIGVLMVAAVFLVIGNSVRLSIFARRDSINVQKLIGATDGFILRPFLYGGALLGFSGALLSLILSEILVLRLSSAVAEVAQVFGTKFDINGLSFDECLLLLLVCSMIGWVAAWLATVQHLRHFTPE
notes: FtsX, E. coli K12, integral membrane protein of FtsEX (four transmembrane helices, periplasmic loop domain); gene amplified from genomic DNA; The gene was amplified from genomic DNA and no truncation or tag on FtsX is mentioned; also called FtsX of FtsEX; TMDs and PLDs
B2: FtsE(E163Q) (enzyme, E. coli K12)
chain: IRFEHVSKAYLGGRQALQGVTFHMQPGEMAFLTGHSGAGKSTLLKLICGIERPSAGKIWFSGHDITRLKNREVPFLRRQIGMIFQDHHLLMDRTVYDNVAIPLIIAGASGDDIRRRVSAALDKVGLLDKAKNFPIQLSGGEQQRVGIARAVVNKPAVLLADQPTGNLDDALSEGILRLFEEFNRVGVTVLMATHDINLISRRSYRMLTLSDGHLHGGVGHE
notes: gene amplified from genomic DNA; The gene was amplified from genomic DNA and no truncation is mentioned; Removal of the 8×His-SUMO fusion from FtsE is not described; the complex with EnvC was recaptured on nickel; Retains endogenously captured ATP; also called NBD; FtsE of FtsE(E163Q)X; not shown: 8×His, N-terminal, kept

Biological target: the molecule itself
Assay: cryo-EM structure; FtsE(E163Q)X with endogenously captured ATP, reconstituted into lipid nanodiscs (MSP1D1, E. coli polar extract, 1:2:200); 2.6 Å

Row | Protein | stoichiometry N
1 | B1 | 2
2 | B2 | 2
